Results on 1 molecule are retold here after patent publication US11814435B2, “Therapeutic antibodies and their uses” (PFIZER INC., priority 2015, dated 2023).

This test has as its system primary myeloma cells from myeloma patients. Briefly: T cell mediated killing of primary myeloma patient samples by anti-BCMA/CD3 bispecific (flow cytometry live cell count). It counts as cell-based, human. To be noted: Patient MM00146; anti-BCMA_h2B4 bispecific; five days after treatment. How it is done: Human anti-BCMA (P5A2, A02_Rd4_0.6 nM_C01, A02_Rd4_6 nM_C16, Combo_Rd4_0.6 nM_C29, and P6E01 L3PY/H3TAQ) and human anti-CD3 (h2B4) antibodies were expressed as human IgG2dA engineered with EEEE or RRRR for bispecific exchange as describe in Example 8.
Cells were treated with 10-fold serially diluted bispecific antibody. […] EC50 was calculated by Prism software.
(In flow cytometry, cells or beads pass a laser one at a time.)

B1: P5A2: anti-BCMA_H2B4 bispecific, human IgG2dA: anti-BCMA arm P5A2, anti-CD3 arm H2B4 (antibody, V domains shown)
VH: EVQLLESGGGLVQPGGSLRLSCAASGFTFSSYAMNWVRQAPGKGLEWVSAISDSGGSTYYADSVKGRFTISRDNSKNTLYLQMNSLRAEDTAVYYCARYWPMDIWGQGTLVTVSS
VL: EIVLTQSPGTLSLSPGERATLSCRASQSVSSSYLAWYQQKPGQAPRLLMYDASIRATGIPDRFSGSGSGTDFTLTISRLEPEDFAVYYCQQYGSWPLTFGQGTKVEIK
What is called EC50 is the concentration that produces a half-maximal response. B1 gave an EC50 of 0.946 nM.
